Molecular target: T1, SARS-CoV-2 soluble S ectodomain protein (residue 1-1208), prefusion-stabilized, with T4 fibritin … (SARS-CoV-2, Wuhan-Hu-1 (MN908947), UniProt P0DTC2, K986/V987 replaced by proline residues)
T1 construct: also called SARS-CoV-2 S-protein; whole S protein
Assay: BLI
Settings: both partners purified

Binder | binding result
mAb CC9.2 (IgG) (antibody, V domains shown) VH: EVQLVESGGGLVQPGRSLRLSCVAPGFTLGGYGMHWVRQAPGKGLEWVGLISYDGSVQKYGSSVKGRFTISKDNSKNTLYLEMNSLRADDTAVYFCVKGASLGDNWGQGTLVTVSS VL: EIVMTQSPLSLPVTLGQPASISCRSSQSLVYSDGDTYMSWFHQRPGQSPRRLIYKVSNRDFGVPDRFSGSGSGTDFTLKISRVEAEDVGVYYCMQGTHWPYTFGPGTKVEIK | binds
mAb CC9.1 (antibody, V domains shown) VH: EVQLVESGGGLVQPGRSLRLSCVAPGFTLGGYGMHWVRQAPGKGLEWVGLISYDGSVQKYGSSVKGRFTISKDNSKNTLYLEMNSLRADDTAVYFCVKGASLGDNWGQGTLVTVSS VL: EIVMTQSPLSLPVTLGQPASISCRSSQSLVYSDGDTYMSWFHQRPGQSPRRLIYKVSNRDSGVPDRFSGSGSGTDFTLKISRVEAEDVGVYYCMQGTHWPYTFGPGTKVEIK | binds
second SARS-CoV-2/HCoV-HKU1 cross-reactive mAb from the CC40 donor (its name is not printed in the text) (antibody, V domains shown, also called one of the two cross-reactive mAbs from the CC40 donor) VH: EVQLVESGGGVVQPGRSLRLSCVASGFTFSNYGMHWVRQAPGKGLEWVAVMSYDGSVTYYGDSVRGRFTISRDNSKNTLYLQMSSLRTDDTGVYYCAKGQPLDDIWGLGTLVTVSS VL: EIVMTQSPLSLPVSLGQSASISCRSSQSLVHTDGITYLSWFQQRPGQSPRRLLYKVSNRDSGVPDRFSGSGSGTDFTLKISRVEAEDVGVYYCLQGTYWPWTFGQGTKVEIK | binds
